{"source": "paper PMC4421793", "about": "“A secretory kinase complex regulates extracellular protein phosphorylation” (eLife, 2015)", "binders": {"B1": {"name": "Fam20A (63–529), recombinant (domain or fragment, human, UniProt Q96MK3 63-529, looked up)", "chain": "DPGTIVHNFSRTEPRTEPAGGSHSGSSSKLQALFAHPLYNVPEEPPLLGAEDSLLASQEALRYYRRKVARWNRRHKMYREQMNLTSLDPPLQLRLEASWVQFHLGINRHGLYSRSSPVVSKLLQDMRHFPTISADYSQDEKALLGACDCTQIVKPSGVHLKLVLRFSDFGKAMFKPMRQQRDEETPVDFFYFIDFQRHNAEIAAFHLDRILDFRRVPPTVGRIVNVTKEILEVTKNEILQSVFFVSPASNVCFFAKCPYMCKTEYAVCGNPHLLEGSLSAFLPSLNLAPRLSVPNPWIRSYTLAGKEEWEVNPLYCDTVKQIYPYNNSQRLLNVIDMAIFDFLIGNMDRHHYEMFTKFGDDGFLIHLDNARGFGRHSHDEISILSPLSQCCMIKKKTLLHLQLLAQADYRLSDVMRESLLEDQLSPVLTEPHLLALDRRLQTILRTVEGCIVAHGQQSVIVDGPVEQ", "notes": "human Fam20A, residues 63-529; Cloned into a modified pI-secSUMOstar vector in which the SUMO tag was replaced by an MBP tag and a TEV site; also called recombinant Fam20A; source: Hi5 insect cells, purified from the conditioned medium (MBP tag removed by TEV protease digestion and gel filtration)"}, "B2": {"name": "Fam20C (93–584), recombinant (enzyme, human, UniProt Q8IXL6 93-584, looked up)", "chain": "DFSSDPSSNLSSHSLEKLPPAAEPAERALRGRDPGALRPHDPAHRPLLRDPGPRRSESPPGPGGDASLLARLFEHPLYRVAVPPLTEEDVLFNVNSDTRLSPKAAENPDWPHAGAEGAEFLSPGEAAVDSYPNWLKFHIGINRYELYSRHNPAIEALLHDLSSQRITSVAMKSGGTQLKLIMTFQNYGQALFKPMKQTREQETPPDFFYFSDYERHNAEIAAFHLDRILDFRRVPPVAGRMVNMTKEIRDVTRDKKLWRTFFISPANNICFYGECSYYCSTEHALCGKPDQIEGSLAAFLPDLSLAKRKTWRNPWRRSYHKRKKAEWEVDPDYCEEVKQTPPYDSSHRILDVMDMTIFDFLMGNMDRHHYETFEKFGNETFIIHLDNGRGFGKYSHDELSILVPLQQCCRIRKSTYLRLQLLAKEEYKLSLLMAESLRGDQVAPVLYQPHLEALDRRLRVVLKAVRDCVERNGLHSVVDDDLDTEHRAASAR", "notes": "human Fam20C, residues 93-584; also called recombinant Fam20C; source: Hi5 insect cells, purified from the conditioned medium (MBP tag removed by TEV protease digestion and gel filtration)"}}, "key": {"[1]": {"target": "B2", "assay": "cell-based or functional assay"}, "[2]": {"target": "B2", "assay": "SEC; two purified proteins (1 mg/ml each) incubated on ice for 2 hr, then Superdex 200 in 25 mM Tris-HCl pH 7.4, 150 mM NaCl; fractions on SDS-PAGE, Coomassie", "conditions": "both partners purified"}, "[3]": {"target": "the molecule itself", "assay": "SEC; one purified protein alone on Superdex 200 in 25 mM Tris-HCl pH 7.4, 150 mM NaCl; oligomeric state judged from the elution profile"}}}
{"binder": "B1", "values": [{"measurement": "Km of Fam20C (2 μg/ml) for ENAM (173–277) S191A with excess Fam20A (40 μg/ml); 14.6 μM without Fam20A, a ∼2.5-fold decrease", "setting": "[1]", "result": 5.6, "unit": "µM"}, {"measurement": "kcat of Fam20C (2 μg/ml) for ENAM (173–277) S191A with excess Fam20A (40 μg/ml); 0.04 s^−1 without Fam20A, a 19-fold increase", "setting": "[1]", "result": 0.76, "unit": "s⁻¹"}, {"measurement": "stoichiometry N", "setting": "[2]", "result": 1}]}
{"binder": "B2", "values": [{"measurement": "stoichiometry N", "setting": "[3]", "result": 2}]}
